Experimental data: the supplement of paper PMC7877785
± gives the uncertainty stated by the source.

Assay: self-splicing fitness, log relative to wild type (ln ratio); higher = more splicing; Tetrahymena group I intron in knt gene, E. coli kanamycin selection, DiMSum; sequences stand for … in CUCUCU…GGAGGGAAAAGUUAUCAGGCAUGCACCUGGUAGCUAGUCUUUAAACCAAUAGAUUGCAUCGGUUUAAAAGGCAAGACCGUCAAAUUGCGGGAAAGGGGUCAACAGCCGUUCAGUACCAAGUCUCAGGGGAAACUUUGAGAUGGCCUUGCAAAGGGUAUGGUAAUAAGCUGACGGACAUGGUCCUAACCACGCAGCCAAGUCCUAAGUCAACAGAUCUUCUGUUGAUAUGGAUGCAGUUCACAGACUAAAUGUCGGUCGGGGAAGAUGUAUUCUUCUCAUAAGAUAUAGUCGGACCUCUCCUUAAUGGGAGCUAGCGGAUGAAGUGAUGCAACACUGGAGCCGCUGGGAACUAAUUUGUAUGCGAAAGUAUAUUGAUUAGUUUUGGAGUACUCGUGGUCG
Outline: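 The eight P1ex-region nucleotides of an intron in the knt kanamycin-resistance gene on pET-22b(+) were all randomised and the library put into E. coli BL21(DE3). Six replicate transformations were grown overnight at 37°C or 30°C on LB agar with or without 25 μg/mL kanamycin, together with 100 μg/mL carbenicillin, 50 μM IPTG and 0.2% rhamnose. Colonies were pooled and amplicon-sequenced on an Illumina HiSeq 2500. Fitness from DiMSum is the error-weighted combination of wild-type-normalised replicate fold changes, kanamycin over none.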

| Sequence | self-splicing fitness (ln) (30 °C) | self-splicing fitness (ln) (37 °C) |
| --- | --- | --- |
| UUGUAGCAAUAUUACGGCGU | -1.2 ± 0.1 | -0.999 ± 0.12 |
| UAGGAGCAAUAUUACGUGUA | -2.02 ± 0.13 | -1.63 ± 0.12 |
| UAGAAGCAAUAUUACGACCA | -0.67 ± 0.094 | -0.157 ± 0.12 |
| UGCAAGCAAUAUUACGUUAC | -2.91 ± 0.27 | -2.41 ± 0.24 |
| ACAUAGCAAUAUUACGCGCG | -0.8 ± 0.12 | -0.126 ± 0.16 |
| GAGGAGCAAUAUUACGAAAU | -3 ± 0.4 | -1.14 ± 0.23 |
| GUUUAGCAAUAUUACGUCCU | -1.12 ± 0.24 | -1.03 ± 0.25 |
| UGUUAGCAAUAUUACGUUAA | -1.85 ± 0.27 | -0.838 ± 0.15 |
| GACGAGCAAUAUUACGGAGG | -3.68 ± 0.26 | -2.97 ± 0.35 |
| UGCAAGCAAUAUUACGAACA | -1.23 ± 0.094 | 0.193 ± 0.13 |
| GGUCAGCAAUAUUACGUCGU | 0.302 ± 0.08 | 0.488 ± 0.082 |
| GGCCAGCAAUAUUACGCUAC | -4.15 ± 0.3 | -2.57 ± 0.23 |
| CCCGAGCAAUAUUACGGGGG | -3.59 ± 0.16 | -2.89 ± 0.27 |
| UGCGAGCAAUAUUACGCUGA | -2.35 ± 0.27 | -2.28 ± 0.27 |
| CGUCAGCAAUAUUACGCAGC | -3.34 ± 0.2 | -2.26 ± 0.19 |
| GCCUAGCAAUAUUACGCCUA |  | -2.79 ± 0.43 |
| GAAUAGCAAUAUUACGUCGG | -3.21 ± 0.12 | -3.19 ± 0.2 |
| UGCAAGCAAUAUUACGGGGU | -3.13 ± 0.15 | -2.75 ± 0.14 |
| UCCUAGCAAUAUUACGCCUG | -2.87 ± 0.39 | -2.57 ± 0.46 |
| ACCCAGCAAUAUUACGCCGC | -3.12 ± 0.18 | -2.37 ± 0.2 |
| CACUAGCAAUAUUACGAGUU | -1.83 ± 0.085 | -0.633 ± 0.093 |
| AUGCAGCAAUAUUACGUGUU | -4.05 ± 0.16 | -2.66 ± 0.17 |
| CUCCAGCAAUAUUACGACCG | -0.451 ± 0.12 | -1.15 ± 0.2 |
| CUAUAGCAAUAUUACGCAUG | -2.02 ± 0.093 | -0.942 ± 0.095 |
| CCGCAGCAAUAUUACGGGCA | -2.72 ± 0.17 | -2.43 ± 0.18 |

| Sequence | self-splicing fitness (ln) (30 °C) | self-splicing fitness (ln) (37 °C) |
| --- | --- | --- |
| CGAGAGCAAUAUUACGCUAA | -2.68 ± 0.33 |  |
| UAUUAGCAAUAUUACGGUGU | -3.01 ± 0.25 | -2.7 ± 0.3 |
| CCUGAGCAAUAUUACGGGGG | -3.15 ± 0.16 | -1.55 ± 0.22 |
| CUUAAGCAAUAUUACGUGGA | -3.7 ± 0.18 | -3.42 ± 0.16 |
| UCGUAGCAAUAUUACGAAAA | -2.3 ± 0.36 | -1.77 ± 0.46 |
| GCUGAGCAAUAUUACGGAGG | -3.67 ± 0.38 | -1.14 ± 0.38 |
| UACUAGCAAUAUUACGUUUA | -2.47 ± 0.16 | -1.05 ± 0.12 |
| GUACAGCAAUAUUACGAAGG |  | -0.639 ± 0.25 |
| GGCCAGCAAUAUUACGCCCU | -1.37 ± 0.16 | -0.726 ± 0.15 |
| UUCGAGCAAUAUUACGGCAU | -2.95 ± 0.27 | -1.44 ± 0.19 |
| CCAAAGCAAUAUUACGCAUC | -3.89 ± 0.16 | -3.05 ± 0.16 |
| CCCUAGCAAUAUUACGAAUC | -3.92 ± 0.22 | -2.61 ± 0.18 |
| GUCGAGCAAUAUUACGGGCG | -2.88 ± 0.11 | -1.36 ± 0.12 |
| UAGAAGCAAUAUUACGCUGA |  | -1.74 ± 0.2 |
| AUCGAGCAAUAUUACGUAUG | -3.84 ± 0.19 | -4.4 ± 0.46 |
| GUUGAGCAAUAUUACGGGAC | -2.69 ± 0.34 | -1.49 ± 0.35 |
| AGACAGCAAUAUUACGGAUA | -2.97 ± 0.12 | -2.17 ± 0.13 |
| CGGAAGCAAUAUUACGCCGG | -0.726 ± 0.15 | 0.698 ± 0.19 |
| UUACAGCAAUAUUACGAAGC |  | -1.41 ± 0.4 |
| AGCUAGCAAUAUUACGCAAG | -4.11 ± 0.47 | -2.93 ± 0.3 |
| AGCUAGCAAUAUUACGACGA | -1.17 ± 0.12 | -0.734 ± 0.14 |
| GGCUAGCAAUAUUACGCGGG | -3.62 ± 0.25 | -3.06 ± 0.27 |
| AACUAGCAAUAUUACGUGAC | -2.92 ± 0.12 | -1.38 ± 0.12 |
| CGAAAGCAAUAUUACGGCGA | -0.763 ± 0.11 | -0.486 ± 0.11 |
| AUCCAGCAAUAUUACGAGGG | -2.9 ± 0.1 | -1.49 ± 0.11 |

| Sequence | self-splicing fitness (ln) (30 °C) | self-splicing fitness (ln) (37 °C) |
| --- | --- | --- |
| AAAAAGCAAUAUUACGUUCU | -0.294 ± 0.066 | -0.0468 ± 0.083 |
| UACAAGCAAUAUUACGGACA | -0.516 ± 0.087 | 0.0805 ± 0.083 |
| UGUAAGCAAUAUUACGGUAG | -2.05 ± 0.12 | -1.34 ± 0.13 |
| AAAAAGCAAUAUUACGGAGU | -2.15 ± 0.13 | -1.63 ± 0.13 |
| CCCGAGCAAUAUUACGUGAA | -3.43 ± 0.37 | -1.87 ± 0.34 |
| GUUCAGCAAUAUUACGUAUA | -0.905 ± 0.15 | -1.1 ± 0.17 |
| CCGUAGCAAUAUUACGCCGC | -3.84 ± 0.26 | -2.68 ± 0.34 |
| UUGUAGCAAUAUUACGGAUG | -1.9 ± 0.12 | -1.56 ± 0.15 |
| UCGCAGCAAUAUUACGGUCU | -3.22 ± 0.2 | -1.13 ± 0.12 |
| GAUUAGCAAUAUUACGACCG | -1.44 ± 0.14 | 0.0909 ± 0.18 |
| ACAUAGCAAUAUUACGUCGA | -1.95 ± 0.18 | -1.64 ± 0.15 |
| UGAGAGCAAUAUUACGGCUA | -1.67 ± 0.25 | -0.532 ± 0.35 |
| CCAAAGCAAUAUUACGGCUA | -4.05 ± 0.43 | -2.28 ± 0.28 |
| UACCAGCAAUAUUACGGGAC | -3.46 ± 0.19 | -2.31 ± 0.2 |
| ACUCAGCAAUAUUACGCAUA | -1.35 ± 0.082 | -0.543 ± 0.094 |
| UAACAGCAAUAUUACGCUCG | -0.803 ± 0.096 | -0.212 ± 0.098 |
| AGAGAGCAAUAUUACGUCAG | -0.659 ± 0.45 |  |
| CACUAGCAAUAUUACGCAGC | -3.17 ± 0.31 | -2.28 ± 0.37 |
| CUCUAGCAAUAUUACGUCCG | -2.91 ± 0.18 | -0.955 ± 0.14 |
| GAAAAGCAAUAUUACGCCGU | -1.75 ± 0.097 | -0.396 ± 0.1 |
| CGGGAGCAAUAUUACGUGCG | -2.41 ± 0.46 | -1.33 ± 0.43 |
| CCAGAGCAAUAUUACGUAUC | -2.62 ± 0.17 | -1.73 ± 0.25 |
| GGUAAGCAAUAUUACGCCAG | -4.42 ± 0.27 | -2.13 ± 0.29 |
| AAUCAGCAAUAUUACGAGCG | -0.582 ± 0.063 | -0.11 ± 0.079 |
| AAGCAGCAAUAUUACGGUUU | -2.78 ± 0.12 | -0.354 ± 0.096 |

| Sequence | self-splicing fitness (ln) (30 °C) | self-splicing fitness (ln) (37 °C) |
| --- | --- | --- |
| GGGUAGCAAUAUUACGGGUG | -4.22 ± 0.36 | -2.68 ± 0.22 |
| UGAUAGCAAUAUUACGCCAA | -3.37 ± 0.27 | -1.85 ± 0.15 |
| GUCCAGCAAUAUUACGGCGU | -0.257 ± 0.078 | 0.0026 ± 0.099 |
| ACGUAGCAAUAUUACGUCGU | -3.52 ± 0.15 | -2.59 ± 0.15 |
| CUAGAGCAAUAUUACGUAGG | -1.04 ± 0.1 | 1 ± 0.14 |
| UAAUAGCAAUAUUACGAAGA |  | -2.76 ± 0.31 |
| AGGGAGCAAUAUUACGGAUA | -3.15 ± 0.31 |  |
| AUUCAGCAAUAUUACGUACG | -1.91 ± 0.087 | -0.205 ± 0.1 |
| AAUGAGCAAUAUUACGGUGC | -3.37 ± 0.23 | -3.03 ± 0.27 |
| UACUAGCAAUAUUACGCGAC | -2.29 ± 0.25 | -2.29 ± 0.3 |
| CAGGAGCAAUAUUACGGUCC | -2.86 ± 0.24 | -2.86 ± 0.38 |
| ACCAAGCAAUAUUACGAUCA | -1.55 ± 0.086 | -1.22 ± 0.075 |
| UAGAAGCAAUAUUACGGAUG | -1.41 ± 0.099 | -0.694 ± 0.12 |
| CAGGAGCAAUAUUACGACAG | -0.986 ± 0.27 | -1.19 ± 0.27 |
| CUAUAGCAAUAUUACGCUGC | -3.11 ± 0.36 |  |
| AAAGAGCAAUAUUACGUACG | -3.6 ± 0.44 | -1.9 ± 0.41 |
| GGUGAGCAAUAUUACGGGGG | -3.41 ± 0.43 |  |
| UGAAAGCAAUAUUACGGAGG | -3.75 ± 0.2 | -2.72 ± 0.26 |
| GGUGAGCAAUAUUACGGGUG | -3.18 ± 0.26 | -2.7 ± 0.27 |
| CCUAAGCAAUAUUACGCCAG | -2.8 ± 0.26 | -2.13 ± 0.29 |
| GUUCAGCAAUAUUACGGAUG | -0.518 ± 0.081 | 0.107 ± 0.085 |
| UGCGAGCAAUAUUACGGCAA | -2.3 ± 0.4 | -0.0535 ± 0.27 |
| CCUGAGCAAUAUUACGUAGA | -3.23 ± 0.13 | -2.26 ± 0.14 |
